This data set deals with the molecule itself. The data set is described as follows: cross-linking.

B1: EriC, Escherichia coli ClC-type Cl- channel homologue, product of the yadQ gene (natural protein, UniProt P37019 1-473, looked up)
chain: MKTDTPSLETPQAARLRRRQLIRQLLERDKTPLAILFMAAVVGTLVGLAAVAFDKGVAWLQNQRMGALVHTADNYPLLLTVAFLCSAVLAMFGYFLVRKYAPEAGGSGIPEIEGALEDQRPVRWWRVLPVKFFGGLGTLGGGMVLGREGPTVQIGGNIGRMVLDIFRLKGDEARHTLLATGAAAGLAAAFNAPLAGILFIIEEMRPQFRYTLISIKAVFIGVIMSTIMYRIFNHEVALIDVGKLSDAPLNTLWLYLILGIIFGIFGPIFNKWVLGMQDLLHRVHGGNITKWVLMGGAIGGLCGLLGFVAPATSGGGFNLIPIATAGNFSMGMLVFIFVARVITTLLCFSSGAPGGIFAPMLALGTVLGTAFGMVAVELFPQYHLEAGTFAIAGMGALLAASIRAPLTGIILVLEMTDNYQLILPMIITGLGATLLAQFTGGKPLYSAILARTLAKQEAEQLARSKAASASENT
The stoichiometry N is a count of units in the complex or per binding partner. For B1, the “stoichiometry N” value amounted to 2.

Source of the values: paper PMC2230540 (The Journal of General Physiology, 1999).
